Test results: patent US9758785B2, “miR-520 microRNAs sensitize cancers to platinum-based therapy” (BAYLOR COLLEGE OF MEDICINE, priority 2012, dated 2017)
Entries after “also recorded” stand apart in the source; their conditions may differ.

B1: hsa-mir-520a MI0003149 (nucleic acid, listed as Homo sapiens)
chain: CUCAGGCUGUGACCCUCCAGAGGGAAGUACUUUCUGUUGUCUGAGAGAAAAGAAAGUGCUUCCCUUUGGACUGUUUCGGUUUGAG
modifications: expressed or natural sequence
notes: seed 5'aagugcu; mimic or stably expressed

Legend:
Type in all cases: cell-based, human
SKOV3ip1 cells [1] = assay: Viability (MTS) across cisplatin concentrations, stable microRNA clones
Procedure: (§1) Established ovarian cancer cell lines were obtained from the ATCC (OVCAR8, OVCAR5) and the University of Texas M.D. Anderson Cancer Center (HEYA8, SKOV3ip1). All cell lines were maintained at 37° C. in RPMI 1640 media (Invitrogen, Carlsbad, Calif.) supplemented with 10% fetal bovine serums (Hyclone, Logan, Utah) and 1% penicillin/streptomycin (Gibco, Carlsbad, Calif.). MicroRNA mimics and mimic controls (Dharmacon, Lafayette, Colo.) were transiently transfected into actively growing cultures using Lipofectamine 2000 (Invitrogen, Carlsbad, Calif.). After a 24-hour incubation, transfected cultures were washed, passaged and seeded into 96 well plates. Proliferation and apoptosis were measured at 72, 96 and 120 hours after transfection using standard assays (Cell Titer 96 Aqueous One; Caspase Glo 3/7; Promega, Madison, Wis.). pLemiR expression vectors (Open Biosystems/Thermo, Huntsville, Ala.) were prepared according to manufacturer's instructions and transfected into cells using Fugene 6 (Roche, Indianapolis, Ind.). Following transfection, stable clones were selected using puromycin (Invitrogen) at doses optimized for each line. Rates of proliferation and apoptosis were examined in stable transfectants 24, 48, 72 and 96 hours after selected cells had been passaged and dispensed into 96 well plates. Viability was assessed across a clinically relevant range of cisplatin concentrations using an MTS assay (Promega). Cisplatin was obtained from Teva Pharmaceuticals (Irvine, Calif.).
(§2) For this reason, the inventors created clones of OVCAR8 and SKOV3ip1 ovarian cancer cell lines stably expressing either miR-520h (n=3) and miR-520a (n=3). […] To assess the impact of these microRNAs on cisplatin-induced cell killing, the inventors examined the viability of OVCAR8 and SKOV3ip1 cells stably expressing either microRNA incubated with clinically relevant concentrations of cisplatin. […] It should be noted that SKOV3ip1 cells tolerated only very low levels of miR-520a expression. The impact of cisplatin treatment on rates of apoptosis differed dramatically between the two cell lines.

OVCAR8 cells [2] = assay: as above
Procedure: as §1, §2

[3] = test system: established ovarian cancer cell lines; assay: Proliferation or apoptosis in established ovarian cancer cell lines after mimic transfection; conditions: mimics vs control cultures; cell lines SKOV4, HEY, OVCAR8, OVCAR5
Procedure: as §1, with “Rates of proliferation and apoptosis were examined in stable transfectants 24, 48, 72 and 96 hours after selected cells had been passaged and dispensed into 96 well plates.” left out, “Cisplatin was obtained from Teva Pharmaceuticals (Irvine, Calif.).” left out

SKOV3ip1 cells [4] = assay: Apoptosis assay (Caspase Glo 3/7)
Procedure: as §1

OVCAR8 cells [5] = assay: Apoptosis assay (Caspase Glo 3/7)
Procedure: as §1

OVCAR8 cells [6] = assay: Proliferation assay (MTS, Cell Titer 96 Aqueous One); conditions: OVCAR8, transient/acute mimic transfection vs non-silencing control, no cisplatin
Procedure: as §1

Molecule	IC50 for cisplatin in control cells (SKOV3ip1 cells [1]; SKOV3ip1 cells expressing the non-silencing control)	IC50 for cisplatinum in control cells (OVCAR8 cells [2]; OVCAR8 cells expressing a non-targeting mimic control)	Impact on proliferation or apoptosis [3]	Apoptosis (caspase 3/7) (SKOV3ip1 cells [4]; SKOV3ip1, acute mimic transfection, no cisplatin)	Apoptosis in presence of cisplatin (SKOV3ip1 cells [4]; SKOV3ip1 stable clones, cisplatin treatment)	Apoptosis (caspase 3/7) (OVCAR8 cells [5]; OVCAR8, transient/acute mimic transfection vs non-silencing control, no cisplatin)	Apoptosis in presence of cisplatin (OVCAR8 cells [5]; OVCAR8 stable clones, cisplatin up to 10 μg/mL)	Proliferation (OVCAR8 cells [6])	Sensitization to cisplatin (viability) (SKOV3ip1 cells [1]; SKOV3ip1 stable clones vs non-silencing mimic)	Sensitization to cisplatin (viability) (OVCAR8 cells [2]; OVCAR8 stable clones vs non-silencing mimic, cisplatin <5 μg/mL)
N.N.[Cl][Pt][Cl] [cisplatin, reference compound]	0.43 µg/mL	1.31 µg/mL	–	–	–	–	–	–	–	–
B1	–	–	impacted proliferation and/or apoptosis in some but not all	decreased rates of apoptosis	significantly increased	decreased rates of apoptosis	significantly decreased; also recorded: significantly lower rates of apoptosis	decreased proliferation only in OVCAR8 cells	appeared to sensitize	sensitized
